# Experimental data: patent US20240026407A1, “MODIFICATION OF SAPONINS” (GLAXOSMITHKLINE BIOLOGICALS SA, priority 2020, published 2024)
# Legend:
# Format in all cases: biochemical, Quillaja saponaria
# [1] = Experiment 6-1: specificity of rhamnosidases towards other rhamnose residues (C3 saccharide rhamnose, C28 saccharide rhamnose); details: TBE 2%, pH 7.5, 30 degC, 18 h; LCMS/MS; negative controls 0.18, 0.17
# [2] = Experiment 6-1: screening of rhamnosidases for derhamnosylation of saponins in treated bark extract (2%), desglucosyl-QS-17 2134 to QS-21 1988 (PAR %); details: TBE 2%, pH 7.5, 30 degC, 18 h; TIC peak area ratio percent, LCMS/MS; negative controls 2.719, 2.158
# [3] = Experiment 6-1: screening of rhamnosidases for derhamnosylation of saponins in treated bark extract (2%), QS-17 2296 to QS-18 2150 (PAR %); details: TBE 2%, pH 7.5, 30 degC, 18 h; TIC peak area ratio percent of rhamnosylated starting saponin to derhamnosylated product, LCMS/MS; negative controls 4.876, 5.225
# [4] = Experiment 6-2: screening of rhamnosidases for derhamnosylation of saponins in treated bark extract (25%), relative % of Left, Middle and Right Peak by UV HPLC; details: TBE 25%, pH 7.4, 19.5 h; for Left Peak: mainly QS-17 family, negative control 24%; for Middle Peak: mainly QS-18 and desglucosyl-QS-17 family, negative control 50%; for Right Peak: mainly QS-21 family, negative control 26%
# [5] = Experiment 6-1: screening of rhamnosidases for derhamnosylation of saponins in treated bark extract (2%), QS-17 2310 to QS-18 2164 (PAR %); details: TBE 2%, pH 7.5, 30 degC, 18 h; TIC peak area ratio percent, LCMS/MS; negative controls 3.061, 2.429
# [6] = Experiment 6-3: screening of rhamnosidases for derhamnosylation of saponins in crude bark extract (80%), relative % of Left, Middle and Right Peak by UV HPLC; details: CBE 80%, pH 7.4, 30 degC, 19.5 h; for Left Peak: mainly QS-17 family, negative control 27%; for Middle Peak: mainly QS-18 and desglucosyl-QS-17 family, negative control 48%; for Right Peak: mainly QS-21 family, negative control 26%
# How it was run: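 Clarified lysates of expressed rhamnosidase variants were incubated with crude bark extract (pH 7.4, final 80%) at 30 degC with shaking for 19.5 h, then quenched with MeCN+2% AcOH. UV HPLC gave relative % of Left (QS-17), Middle (QS-18/desglucosyl-QS-17) and Right (QS-21) peaks.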
Molecule,ratio PP/QS-21 [1],Peak75 (PAR %) [2] [%],QS-17 (PAR %) [3] [%],Left Peak [4] [%],Middle Peak [4] [%],Right Peak [4] [%],Peak57 (PAR %) [5] [%],Left Peak [6] [%],Middle Peak [6] [%],Right Peak [6] [%]
"990 (protein, listed as Streptomyces bingchenggensis) MISRRNLLGTATAAGPALTGLTALAATTGKAEAAEPGYGGLRVEKTTVEYADRPLGLDAPHPRLSWQLGSDRRNQSQSAYQLRVATSPGRIGAPDVWDSGKVSSHQSVLVPYDGPKLRARTRYHWAVRVWDGQGRPSPWSEPTWWETGLGTEDEGAARWVAAPDTVTRGPDLAKADWVWYPEGDPASSAPAGTRYFRGSLDVSGSVRLARLALVADDGFTAWVNGTEIGGRAPVQENWRHPVVVDVTALLREGANTIAVAAVNASSSPAGLLGVLELTDTDGVRSLTTSAAWKATDTEPSGDWHLPAYDDGGWAAAKVLAPWGGGPWGRVRAAQRPALVRRDFRLAAKPVARARLYSTALGLYEAEINGHRVGRDQLAPGWTDYRKRVQYQTYDVTDLLRHGANAIGVILASGWYSGSVAWFGQELYGERPALRAELEVTYADGSTDRVTADTHWRCATGPILTADLMAGEEYDARLEVSGWSSPAFDDSLWQSVDVVPADTTSAVSVVAQTDAPVRVARELAAVRVTEPKPGVYVFDLGQNMVGSVRLRVRGEAGRTVRLRHAEVLDKDGMLYTANLRTAQATDSYTLKGSGTETFEPRFTFHGFRYVEVTGYPGTPDTKSVTGRVMHTGAPFTMSFTTDVPMLDQLHRNITWGQRGNFLSVPTDTPARDERLGWTGDINVFSATAAYTMESARFLAKWLRDLRDGQSDAGAFPDVAPRIGNLGEGTAGWGDAGVTVPWNLYQAYGDRQILADNFPAMRAWITYLEQHSSGCLRPAEGYGDWLNVADETPKDVIATAYFAHSTQLVAKAARVLGHDPAPYDTLAAKVREAFNRAYVSADGTVKGNTQTAYVLALSMDLLPDSARTPAAERLVELIRSKDRHLSTGFLGTPRLLPTLTATGHTDVAYQLLEQRTFPSWGYQIDRGSTTMWERWDSLRPDGSFQDPGMNSFNHYAYGSVGEWMYQNITGIGMGEPGFRSIVIRPRPGGDVHEANGRYDSLYGPITTRWTRANDGAFTLDVSVPVNTTAEVWLPAATSRAASGISHAGATFLRLDDGCAVYGVGSGPYRFTAP",0.21,2.151,5.144,23,51,26,0.188,25,47,28
"992 (protein, listed as Roseburia intestinalis) MGKIYAAKTNHITNPIGFNMDSIAFSWKVKGCRGQEQKYARIVISKNKTFTDICYDTGETELDSLSTRVEFEIQPYTRYYWKVIVTTDVEEVIESDVQFFETAKMDEPWTGRWITCDSSQERHPIFSKRIEPKKEVKSARLYICGLGLYEAYFLGENKENPKKIGDEYLTPYCNNYDRWIQYQTYDITEQAERGGVLSVLLGNGWYKGRFGFNDPEREAYYGDEWKLIAEVHIEYKDGTKDVISSDETWSVTRSNLWFSNIYDGERRDDTLPPVEESPARIAKAPKGRLMERLSLPVKVQEEMKPAELIHTPAGEDVFDLGQEITGIFQLRVNEPSGTIIRIQTGEILQDGCFYNENLRTALSEYVYVSDGMEKVIIPHFTYYGYRYVKVSGVTNLSCEDFMAIVLYSDYESIGTVETGSELVNKLISNIEWGMKGNFLDVPTDCPQRDERMGWTGDTQVFSATASYLADTYAFYRKYLYDLYQEQLLAGGMVPEIVPTFGPTKCSCAWGDAACIIPWNVYLFSGDKTILENQIESMKAWVDYIRRIDGDHHGWRQVFHYGDWLALDRTGAAANSVYGATDEAYIADIYYAASAQIVAKAAEVLGLEETRQEYHKIADRQWQVVKEEYFTATGRCAVKTQTGLILALKYHLSENEELTREMLKKLLRDNKNKLNTGFVGTPLLCNVLTDHGMTDAAYRLLLNEEYPGWLHEVKLGATTVWERWNSLDESGHVSSTGMNSLNHYSYGAILEWIFRHAAGIDVMEQSPGGKVMRISPKVNSELKYVKAVYDSATGCYQCGWEILEGNKITITVTVPFGGKAEVVLPYAPECIYEDIENPLFEAVENGICHVKAGEYEVVYEASEPLKKRYSIDSTMEELLNHPDIRAFLSQMVEVDMIPDIAYGLSLRDVAKTFAGEIKPDEAQMLDKALAKF",0.20,0.000,0.000,7,62,31,0.000,21,49,30
"1077 (protein, listed as Bacillus sp.) MAGRNWNASWIWGGQEESPRNEWRCFRGSFDAPASVEGPAMLHITADSRYVLFVNGEQVGRGPVRSWPKEQFYDSYDIGGQLRPGVRNTIAVLVLHFGVSNFYYLRGRGGLIAEIEADGRTLAATDAAWRTERLGGQRSNSPRMACQQGFGEVIDARELAEDWALPAFDDGGWAQARSIGPAGTAPWTSLVPRDIPFLTEEKLYPASIQSLSRVKAPKYAAALDLRNQMVPESVNHANPVSYCGYVATILTLETSGVVTLGFPTGVRGSGVWVDGVLQTEWTGVQPERYYSLNLAAGEHLVLVDITSSDHGGSSHFAIDSEAAFTLRSPAGDNGVPLATIGTFDQSEYIDHRPGRRMQTDHPDYRALPEAAPTAAALEAFASWVKPFEPSLYTEENVFGSNVWRTLAERRAVPRSVLNAILPVPEPGVLPVFEDGDCELVIDLGAERSGFIGFELEAPAGTIIDAYGVEYMREGYTQHTYGLDNTFRYICREGRQSYVSPVRRGFRYLFLTVRGNSAPVKLHEIYIRQSTYPVAEQGSFRCSDALLNATWEISRHTTRLCMEDTFVDCPSYEQVFWVGDSRNEALVNYYVFGETEIVERCLNLVPGSADETPLYLDQVPSAWSSVIPNWTFFWILACREYAAHTGNEAFAARIWPAVKHTLTHYLEHIDDSGLLNMAGWNLLDWAPIDQPNEGIVTHQNLFLVKALRDSRALAAAAGATEEADAFAARADLLAETINAVLWDEEKRAYIDCIHADGRRSDVYSMQTQVVAYLCGVAQGEREAVIEGYLSSPPPAFVQIGSPFMSFFYYEALEKAGRQTLMLDDIRRNYGQMLRYDATTCWEMYPNFAENRSNPDMLTRSHCHAWSAAPGYFLGSSILGVKRGADGWRTVDIAPQPCDLTWAEGVVPLPQGGHIAVSWEFVSAGKLKLRIEAPEDIEVNVTLPEGIEGEVTQVKYMS",0.18,2.138,3.964,23,51,26,2.532,26,48,27
"1003 (protein, listed as Rahnella aquatilis) MPAVIRLTLNQESALSGVQQLPVLGWEIESRNRNVRQTAYRLQISQDQDFDNILLRGEWQESECSNNIPLTELMLTSSQHYFIRVQVRDNYGETSGWSSPAQMITGVLYPHEWLADFITAETSADKDNSHATLLRKSFVLNRAQDIQSAFIHVSALGLYELYLNGHKAGEDALTPGWTSYHNHLLYQTYDVTGHLEKGENVIGAILGAGWYKGDMGFSRHRNYYGERSALISQLVINYNDGSQEIVISDESWKGQDSAILFSEIYDGEIYDARREIPGWCTKDVSGEGWRPVSLVTHEKSTLVAQGSNTVRKMAEIKPVALITTPQGDTVIDFGQNLSGWVEFRVSGKAGDEVVLRHFEVLDADGNVYLDNLRTARQRTAYVLKGEGEEIWHPHFTWQGFRFVKVEEYPGQWDLNNFTAIVLHSAMEQTGHFACSNPQLNQLHHNILWGLKGNFVDVPTDCPQRDERLGWTGDAQIFCRTASYLMQTRNFFAKWLTDLRYDQTPEGGVPHVIPDILTGYCGKDRLLSEGGTHSASAWADAAVINPWTMYLMYGDTCVLENQYASMKGWIDFMTAHAENHIWHYKLQFGDWVALDAKEGSYFGATPNDLTCTAYYAYSTQLFAKAAKVLNRTEDYDHYHALYQAIVRRFQEAFFTPSGQLAARTQTAHILALYFNLVPDEFRQRTTDTLVELLNEHDGHLVTGFVGTPYFCHALSQNGRTKEAWNLLLKEDFPSWLYQVKAGATTVWEHWDGIKPDGSMWSADMNSFNHYAYGAVGEWLYRVAAGIEADEAQPGFKHFIIKPLTGGGLSWLDTRYQSIYGAIGVRWEVSGQTVFLNVTVPANTSATVVLTDGQSVQEADGIDFARCAEGYTAEVGSGEYRIEYRLV",0.19,0.000,0.000,7,63,31,0.000,27,47,26
